Measured values from US20260242478A1 (published 2026).

Tests used:
[1] = biological target: anti-CD28 Fab (SEQ ID NOs: 696, 697); experiment: phage binding ELISA; biotinylated Fab on neutravidin plate, clonal phage supernatant, anti-M13 HRP detection;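 also: phage from clones picked after panning, added to wells pre-incubated with blocking buffer with or without CD28 antigen, then briefly incubated and washed before detection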
[2] = biological target: anti-CD28 Fab (SEQ ID NOs: 696, 697); experiment: phage binding ELISA; Fab on plate pre-incubated with CD28 antigen as competitor, anti-M13 HRP detection;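 also: crude clonal phage supernatants screened by ELISA, with comparison wells pre-incubated in blocking buffer only, lacking CD28 antigen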
Description: (§1) After panning, phage infected bacteria were plated out and colonies picked into 96 well blocks. Clonal phage was then amplified and separated from bacterial cells via centrifugation.
(§2) Clonal phage were harvested as crude supematants and screened via standard ELISAs. […] Prior to the addition of clonal phage, wells were incubated with blocking buffer and CD28 antigen or blocking buffer alone. Without washing or aspirating, clonal phage supematants were then added to the wells and incubated for a short time. Wells were then washed followed by detection of bound phage using a horse radish conjugated anti-M13 antibody. Clonal phage of interest were then sent for sequence analysis.

[3] = biological target: Anti-CD28 Fab (SEQ ID NOs: 696, 697); experiment: phage ELISA, biotinylated anti-CD28 Fab on neutravidin plate, anti-M13 HRP detection
Target sequence in this assay (VH, as listed by the source, chain 1 of 2): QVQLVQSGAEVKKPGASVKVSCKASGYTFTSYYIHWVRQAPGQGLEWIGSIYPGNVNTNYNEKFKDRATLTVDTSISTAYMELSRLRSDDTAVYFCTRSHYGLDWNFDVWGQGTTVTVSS
Target sequence in this assay (VL, as listed by the source, chain 2 of 2): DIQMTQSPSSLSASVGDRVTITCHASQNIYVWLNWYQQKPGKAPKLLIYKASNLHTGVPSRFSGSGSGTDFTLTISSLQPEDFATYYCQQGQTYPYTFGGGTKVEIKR
Description: as §1, §2

[4] = biological target: Anti-CD28 Fab (SEQ ID NOs: 696, 697); experiment: phage ELISA on captured anti-CD28 Fab, wells pre-incubated with CD28 antigen as competitor;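 also: crude clonal phage supernatants added without washing, bound phage read out by HRP-coupled anti-M13 antibody, reference wells given blocking buffer only instead of CD28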
Target sequence in this assay (VH, as listed by the source, chain 1 of 2): as the sequence (VH, as listed by the source, chain 1 of 2) above
Target sequence in this assay (VL, as listed by the source, chain 2 of 2): as the sequence (VL, as listed by the source, chain 2 of 2) above
Description: as §1, §2

[5] = biological target: T1, Anti-CD28 Fab (SEQ ID NOs: 696, 697); experiment: phage binding ELISA; biotinylated anti-CD28 Fab on neutravidin plate, clonal phage supernatant, anti-M13 HRP detection
T1 construct: Biotinylated and captured on neutravidin coated plates in the phage ELISA
T1 sequence (VH, as listed by the source, chain 1 of 2): as the sequence (VH, as listed by the source, chain 1 of 2) above
T1 sequence (VL, as listed by the source, chain 2 of 2): as the sequence (VL, as listed by the source, chain 2 of 2) above

[6] = biological target: T1, Anti-CD28 Fab (SEQ ID NOs: 696, 697); experiment: phage binding ELISA on anti-CD28 Fab plate pre-incubated with CD28 antigen as competitor; anti-M13 HRP detection
Description: as §1, §2

[7] = biological target: T2, Anti-CD28 Fab (SEQ ID NOs: 696, 697) (biotinylated (site not stated)); experiment: phage binding ELISA; Fab-coated wells pre-incubated with CD28 antigen as competitor, then clonal phage, anti-M13 HRP detection
[8] = biological target: T2, Anti-CD28 Fab (SEQ ID NOs: 696, 697); experiment: phage binding ELISA; biotinylated anti-CD28 Fab on neutravidin plates, clonal phage supernatant, anti-M13 HRP detection
Description: as §1, §2

Sequence of anti-CD28 Fab (SEQ ID NOs: 696, 697) (VH, as listed by the source, chain 1 of 2): as the sequence (VH, as listed by the source, chain 1 of 2) above
Sequence of anti-CD28 Fab (SEQ ID NOs: 696, 697) (VL, as listed by the source, chain 2 of 2): as the sequence (VL, as listed by the source, chain 2 of 2) above
T2 sequence (VH, as listed by the source, chain 1 of 2): as the sequence (VH, as listed by the source, chain 1 of 2) above
T2 sequence (VL, as listed by the source, chain 2 of 2): as the sequence (VL, as listed by the source, chain 2 of 2) above

B1: Phage-626 (peptide)
peptide: YCEGHLPQYLQKCL
notes: tested as crude phage supernatant
Anti-CD28 Fab (SEQ ID NOs: 696, 697) signal [1]: 2.16
Anti-CD28 Fab signal in the presence of CD28 [2]: 0.09

B2: Phage-634 (peptide)
peptide: YCEGHSAEYMAKCL
notes: Clonal phage displaying the peptide; not shown: fused to pIII of the bacteriophage
Anti-CD28 Fab signal (phage binding ELISA) [3]: 2.14
Anti-CD28 Fab signal in the presence of CD28 (phage binding ELISA) [4]: 0.06

B3: Phage-658 (peptide, not shown: large carriers)
peptide: YCEGHTAEYLQKCL
notes: Clonal phage supernatant of the Peptide-87 library
Anti-CD28 Fab signal (phage binding ELISA) [5]: 2.09
Anti-CD28 Fab signal in the presence of CD28 (phage binding ELISA) [6]: 0.1

B4: Phage-627 (peptide)
peptide: YCDGHVAEYMAKCL
notes: as for B1
Anti-CD28 Fab (SEQ ID NOs: 696, 697) signal [1]: 2.16
Anti-CD28 Fab signal in the presence of CD28 [2]: 0.07

B5: Phage-633 (peptide)
peptide: YCDGHLGIYMWKCL
notes: as for B2
Anti-CD28 Fab signal (phage binding ELISA) [3]: 2.14
Anti-CD28 Fab signal in the presence of CD28 (phage binding ELISA) [4]: 0.08

B6: Phage-639 (peptide)
peptide: YCDGHIPIYMSKCL
notes: as for B2
Anti-CD28 Fab signal (phage binding ELISA) [3]: 2.13
Anti-CD28 Fab signal in the presence of CD28 (phage binding ELISA) [4]: 0.08

B7: Phage-669 (peptide, not shown: large carriers)
peptide: YCAGHLPEYIDKCL
notes: as for B3
Anti-CD28 Fab signal (phage binding ELISA) [5]: 2.07
Anti-CD28 Fab signal in the presence of CD28 (phage binding ELISA) [6]: 0.08

B8: Phage-660 (peptide, not shown: large carriers)
peptide: YCSGHLPEYMEKCL
notes: as for B3
Anti-CD28 Fab signal (phage binding ELISA) [5]: 2.09
Anti-CD28 Fab signal in the presence of CD28 (phage binding ELISA) [6]: 0.09

B9: Phage-648 (peptide)
peptide: YCDGHLEEYMAKCL
notes: as for B1
Anti-CD28 Fab signal in the presence of CD28 (phage binding ELISA) [7]: 0.09
Anti-CD28 Fab signal (phage binding ELISA) [8]: 2.11

B10: Phage-635 (peptide)
peptide: YCDGHSDEYMAKCL
notes: as for B2
Anti-CD28 Fab signal (phage binding ELISA) [3]: 2.14
Anti-CD28 Fab signal in the presence of CD28 (phage binding ELISA) [4]: 0.07

B11: Phage-654 (peptide)
peptide: YCDGHSAEYMSKCL
notes: as for B1
Anti-CD28 Fab signal in the presence of CD28 (phage binding ELISA) [7]: 0.06
Anti-CD28 Fab signal (phage binding ELISA) [8]: 2.1

B12: Phage-646 (peptide)
peptide: YCMGHSEEYMQKCL
notes: as for B1
Anti-CD28 Fab signal in the presence of CD28 (phage binding ELISA) [7]: 0.07
Anti-CD28 Fab signal (phage binding ELISA) [8]: 2.11

B13: Phage-662 (peptide, not shown: large carriers)
peptide: YCMGHLPQYMEKCL
notes: as for B3
Anti-CD28 Fab signal (phage binding ELISA) [5]: 2.08
Anti-CD28 Fab signal in the presence of CD28 (phage binding ELISA) [6]: 0.08

B14: Phage-657 (peptide, not shown: large carriers)
peptide: YCAGHLPEHIGKCL
notes: as for B3
Anti-CD28 Fab signal (phage binding ELISA) [5]: 2.09
Anti-CD28 Fab signal in the presence of CD28 (phage binding ELISA) [6]: 0.07

B15: Phage-638 (peptide)
peptide: YCAGHLPEYISKCL
notes: as for B2
Anti-CD28 Fab signal (phage binding ELISA) [3]: 2.14
Anti-CD28 Fab signal in the presence of CD28 (phage binding ELISA) [4]: 0.08

B16: Phage-651 (peptide)
peptide: YCAGHTQEYMSKCL
notes: as for B1
Anti-CD28 Fab signal in the presence of CD28 (phage binding ELISA) [7]: 0.05
Anti-CD28 Fab signal (phage binding ELISA) [8]: 2.1

B17: Phage-641 (peptide)
peptide: YCAGHLPLYMEKCL
notes: as for B2
Anti-CD28 Fab signal (phage binding ELISA) [3]: 2.12
Anti-CD28 Fab signal in the presence of CD28 (phage binding ELISA) [4]: 0.06

B18: Phage-649 (peptide)
peptide: YCDGHMPEYMLKCL
notes: as for B1
Anti-CD28 Fab signal in the presence of CD28 (phage binding ELISA) [7]: 0.09
Anti-CD28 Fab signal (phage binding ELISA) [8]: 2.11

B19: Phage-661 (peptide, not shown: large carriers)
peptide: YCAGHLEIYMQKCL
notes: as for B3
Anti-CD28 Fab signal (phage binding ELISA) [5]: 2.09
Anti-CD28 Fab signal in the presence of CD28 (phage binding ELISA) [6]: 0.08

B20: Phage-625 (peptide)
peptide: YCDGHSNEYMAKCL
notes: as for B1
Anti-CD28 Fab (SEQ ID NOs: 696, 697) signal [1]: 2.16
Anti-CD28 Fab signal in the presence of CD28 [2]: 0.07

B21: Phage-630 (peptide)
peptide: YCDGHSLEYMAKCL
notes: as for B1
Anti-CD28 Fab (SEQ ID NOs: 696, 697) signal [1]: 2.15
Anti-CD28 Fab signal in the presence of CD28 [2]: 0.06

B22: Phage-629 (peptide)
peptide: YCDGHSAEYMWKCL
notes: as for B1
Anti-CD28 Fab (SEQ ID NOs: 696, 697) signal [1]: 2.15
Anti-CD28 Fab signal in the presence of CD28 [2]: 0.08

B23: Phage-640 (peptide)
peptide: YCEGHLPQYLAKCL
notes: as for B2
Anti-CD28 Fab signal (phage binding ELISA) [3]: 2.12
Anti-CD28 Fab signal in the presence of CD28 (phage binding ELISA) [4]: 0.1

B24: Phage-645 (peptide)
peptide: YCDGHLPVYMAKCL
notes: as for B1
Anti-CD28 Fab signal in the presence of CD28 (phage binding ELISA) [7]: 0.09
Anti-CD28 Fab signal (phage binding ELISA) [8]: 2.11

B25: Phage-653 (peptide)
peptide: YCDGHVPQYMAKCL
notes: as for B1
Anti-CD28 Fab signal in the presence of CD28 (phage binding ELISA) [7]: 0.07
Anti-CD28 Fab signal (phage binding ELISA) [8]: 2.1

B26: Phage-644 (peptide)
peptide: YCDGHAPQYMLKCL
notes: as for B1
Anti-CD28 Fab signal in the presence of CD28 (phage binding ELISA) [7]: 0.09
Anti-CD28 Fab signal (phage binding ELISA) [8]: 2.12

B27: Phage-655 (peptide)
peptide: YCQGHLPQYIAKCL
notes: as for B1
Anti-CD28 Fab signal in the presence of CD28 (phage binding ELISA) [7]: 0.08
Anti-CD28 Fab signal (phage binding ELISA) [8]: 2.09

B28: Phage-664 (peptide, not shown: large carriers)
peptide: YCEGHAPEHMAKCL
notes: as for B3
Anti-CD28 Fab signal (phage binding ELISA) [5]: 2.08
Anti-CD28 Fab signal in the presence of CD28 (phage binding ELISA) [6]: 0.1

B29: Phage-668 (peptide, not shown: large carriers)
peptide: YCDGHAQEFMSKCL
notes: as for B3
Anti-CD28 Fab signal (phage binding ELISA) [5]: 2.07
Anti-CD28 Fab signal in the presence of CD28 (phage binding ELISA) [6]: 0.12

B30: Phage-650 (peptide)
peptide: YCSGHAPIYMAKCL
notes: as for B1
Anti-CD28 Fab signal in the presence of CD28 (phage binding ELISA) [7]: 0.07
Anti-CD28 Fab signal (phage binding ELISA) [8]: 2.1

B31: Phage-667 (peptide, not shown: large carriers)
peptide: YCEGHSMQHMAKCL
notes: as for B3
Anti-CD28 Fab signal (phage binding ELISA) [5]: 2.07
Anti-CD28 Fab signal in the presence of CD28 (phage binding ELISA) [6]: 0.08

B32: Phage-652 (peptide)
peptide: YCEGHSPQYMQKCL
notes: as for B1
Anti-CD28 Fab signal in the presence of CD28 (phage binding ELISA) [7]: 0.06
Anti-CD28 Fab signal (phage binding ELISA) [8]: 2.1

B33: Phage-631 (peptide)
peptide: YCEGHLPEYMSKCL
notes: as for B2
Anti-CD28 Fab signal (phage binding ELISA) [3]: 2.15
Anti-CD28 Fab signal in the presence of CD28 (phage binding ELISA) [4]: 0.07

B34: Phage-637 (peptide)
peptide: YCDGHQPEYMAKCL
notes: as for B2
Anti-CD28 Fab signal (phage binding ELISA) [3]: 2.14
Anti-CD28 Fab signal in the presence of CD28 (phage binding ELISA) [4]: 0.07

B35: Phage-642 (peptide)
peptide: YCDGHSAEYMMKCL
notes: as for B2
Anti-CD28 Fab signal (phage binding ELISA) [3]: 2.12
Anti-CD28 Fab signal in the presence of CD28 (phage binding ELISA) [4]: 0.08

B36: Phage-666 (peptide, not shown: large carriers)
peptide: YCEGHSPEYMSHCF
notes: as for B3
Anti-CD28 Fab signal (phage binding ELISA) [5]: 2.08
Anti-CD28 Fab signal in the presence of CD28 (phage binding ELISA) [6]: 0.09

B37: Phage-628 (peptide)
peptide: YCDGHLPEYMWKCI
notes: as for B1
Anti-CD28 Fab (SEQ ID NOs: 696, 697) signal [1]: 2.15
Anti-CD28 Fab signal in the presence of CD28 [2]: 0.07

B38: Phage-636 (peptide)
peptide: YCEGHSLEYIGKCL
notes: as for B2
Anti-CD28 Fab signal (phage binding ELISA) [3]: 2.14
Anti-CD28 Fab signal in the presence of CD28 (phage binding ELISA) [4]: 0.06

B39: Phage-632 (peptide)
peptide: YCAGHLPEYMQKCL
notes: as for B2
Anti-CD28 Fab signal (phage binding ELISA) [3]: 2.15
Anti-CD28 Fab signal in the presence of CD28 (phage binding ELISA) [4]: 0.09

B40: Phage-659 (peptide, not shown: large carriers)
peptide: YCAGHSPEYMGKCM
notes: as for B3
Anti-CD28 Fab signal (phage binding ELISA) [5]: 2.09
Anti-CD28 Fab signal in the presence of CD28 (phage binding ELISA) [6]: 0.06

B41: Phage-643 (peptide)
peptide: YCEGHLPQYIPKCL
notes: as for B2
Anti-CD28 Fab signal (phage binding ELISA) [3]: 2.12
Anti-CD28 Fab signal in the presence of CD28 (phage binding ELISA) [4]: 0.07

B42: Phage-663 (peptide, not shown: large carriers)
peptide: YCEGHSAEYMWKCL
notes: as for B3
Anti-CD28 Fab signal (phage binding ELISA) [5]: 2.08
Anti-CD28 Fab signal in the presence of CD28 (phage binding ELISA) [6]: 0.09

B43: Phage-665 (peptide, not shown: large carriers)
peptide: YCDGHAEQYMEKCL
notes: as for B3
Anti-CD28 Fab signal (phage binding ELISA) [5]: 2.08
Anti-CD28 Fab signal in the presence of CD28 (phage binding ELISA) [6]: 0.07

B44: Phage-656 (peptide)
peptide: YCAGHLPQYMEKCM
notes: as for B1
Anti-CD28 Fab signal in the presence of CD28 (phage binding ELISA) [7]: 0.08
Anti-CD28 Fab signal (phage binding ELISA) [8]: 2.09

B45: Phage-647 (peptide)
peptide: YCDGHLPEYMHKCL
notes: as for B1
Anti-CD28 Fab signal in the presence of CD28 (phage binding ELISA) [7]: 0.11
Anti-CD28 Fab signal (phage binding ELISA) [8]: 2.11
